Experimental findings from paper PMC3893830, “Manipulating Conserved Heme Cavity Residues of Chlorite Dismutase: Effect on Structure, Redox Chemistry, and Reactivity” (Biochemistry, 2013) are described below.

Substrate in the series: [O-][Cl+]O
As to the kind of experiment: O2 release, Clark-type oxygen electrode. The class given is biochemical, Nitrospira defluvii. The note with it: 50 mM phosphate pH 7.0, 30 °C, O2-free buffer, low heme occupancy. The text has this:
O2 release, Clark-type oxygen electrode on NdCld

B1: NdCld (Nitrospira defluvii; E236A/R199Q) (protein)
chain: ADREKLLTESGVYGTFATFQMDHDWWDLPGESRVISVAEVKGLVEQWSGKILVESYLLRGLSDHADLMFRVHARTLSDTQQFLSAFMGTRLGRHLTSGGLLHGVSKKPTYVAGFPESMKTELQVNGESGSRPYAIVIPIKKDAEWWALDQEARTALMQEHTQAALPYLKTVKQKLYHSTGLDDVDFITYFETERLEDFHNLVRALQQVKAFRHNRRFGHPTLLGTMSPLDEILEKFAQ
notes: N-terminal TEV-cleavable Strep-II tag, N-terminal signal peptide removed; expressed in E. coli Tuner (DE3), StrepTrap purified; homopentamer with heme b
Usually Km stands for the concentration of substrate that gives half-maximal velocity. For orientation: kcat means the maximal rate divided by the concentration of active sites. In general, kcat/Km refers to the second-order rate constant that governs catalysis at low substrate concentration. Regarding B1, the Km came to 184 ± 36 µM, the kcat amounted to 0.9 s⁻¹ and the kcat/Km came out at 4600 M⁻¹ s⁻¹.
